Here are results for one substance from doi:10.1101/2019.12.20.884148.

In this assay the target is Galectin-3 (R&D Systems) (UniProt P17931). Briefly: SPR.
Chain of UniProt P17931 (P17931 whole entry): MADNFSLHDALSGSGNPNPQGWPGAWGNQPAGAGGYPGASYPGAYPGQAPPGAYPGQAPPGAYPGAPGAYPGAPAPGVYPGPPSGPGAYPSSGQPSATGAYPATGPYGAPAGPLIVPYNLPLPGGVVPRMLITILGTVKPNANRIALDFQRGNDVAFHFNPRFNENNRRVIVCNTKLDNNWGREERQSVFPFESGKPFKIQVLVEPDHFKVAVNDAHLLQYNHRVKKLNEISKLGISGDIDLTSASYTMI

As to “Bovine lubricin (bPRG4) (natural protein)”, the Kd amounted to 3.8 µM. That is a single-digit micromolar value.

As a reminder, the Kd is the free concentration of one partner at which half of the binding sites on the other are occupied at equilibrium, for simple one-to-one binding.
